Measurements reported in IntAct's records for PubMed 18376416.

B1: Protein XRP2 (Homo sapiens), O75695 (parent)
chain: MGCFFSKRRKADKESRPENEEERPKQYSWDQREKVDPKDYMFSGLKDETVGRLPGTVAGQQFLIQDCENCNIYIFDHSATVTIDDCTNCIIFLGPVKGSVFFRNCRDCKCTLACQQFRVRDCRKLEVFLCCATQPIIESSSNIKFGCFQWYYPELAFQFKDAGLSIFNNTWSNIHDFTPVSGELNWSLLPEDAVVQDYVPIPTTEELKAVRVSTEANRSIVPISRGQRQKSSDESCLVVLFAGDYTIANARKLIDEMVGKGFFLVQTKEVSMKAEDAQRVFREKAPDFLPLLNKGPVIALEFNGDGAVEVCQLIVNEIFNGTKMFVSESKETASGDVDSFYNFADIQMGI

Variants of: B1
Conditions: with arl3_mouse Arl3, Q9WUL7
Sequence of arl3_mouse Arl3, Q9WUL7 (Q9WUL7 whole entry): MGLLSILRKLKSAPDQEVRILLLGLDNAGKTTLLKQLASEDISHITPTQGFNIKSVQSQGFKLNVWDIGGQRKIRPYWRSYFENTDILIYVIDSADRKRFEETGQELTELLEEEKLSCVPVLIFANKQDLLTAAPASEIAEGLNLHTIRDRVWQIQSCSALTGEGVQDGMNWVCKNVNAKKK

Variant | effect of a mutation on the interaction
E138G | decreasing interaction
R118A | decreasing interaction
F177A | decreasing interaction
Q116A | decreasing interaction

Variants of: B1
Conditions: with arl3_mouse Arl3, Q9WUL7
Remark: another data set of the same source

Variant | effect of a mutation on the interaction
Q115A | decreasing interaction
R120H;D121S | decreasing interaction
R118H | decreasing interaction
S28A;W29A | decreasing interaction
